Drawing on paper PMC10786891, “Massively parallel profiling of RNA-targeting CRISPR-Cas13d”, this text covers Kd for 23 molecules.

What is called Kd is the constant that tells how readily two partners part at equilibrium.

T1: EsCas13d, nuclease-dead (Eubacterium siraeum, UniProt B0MS50, R295A;H300A;R849A;H854A)
T1 sequence: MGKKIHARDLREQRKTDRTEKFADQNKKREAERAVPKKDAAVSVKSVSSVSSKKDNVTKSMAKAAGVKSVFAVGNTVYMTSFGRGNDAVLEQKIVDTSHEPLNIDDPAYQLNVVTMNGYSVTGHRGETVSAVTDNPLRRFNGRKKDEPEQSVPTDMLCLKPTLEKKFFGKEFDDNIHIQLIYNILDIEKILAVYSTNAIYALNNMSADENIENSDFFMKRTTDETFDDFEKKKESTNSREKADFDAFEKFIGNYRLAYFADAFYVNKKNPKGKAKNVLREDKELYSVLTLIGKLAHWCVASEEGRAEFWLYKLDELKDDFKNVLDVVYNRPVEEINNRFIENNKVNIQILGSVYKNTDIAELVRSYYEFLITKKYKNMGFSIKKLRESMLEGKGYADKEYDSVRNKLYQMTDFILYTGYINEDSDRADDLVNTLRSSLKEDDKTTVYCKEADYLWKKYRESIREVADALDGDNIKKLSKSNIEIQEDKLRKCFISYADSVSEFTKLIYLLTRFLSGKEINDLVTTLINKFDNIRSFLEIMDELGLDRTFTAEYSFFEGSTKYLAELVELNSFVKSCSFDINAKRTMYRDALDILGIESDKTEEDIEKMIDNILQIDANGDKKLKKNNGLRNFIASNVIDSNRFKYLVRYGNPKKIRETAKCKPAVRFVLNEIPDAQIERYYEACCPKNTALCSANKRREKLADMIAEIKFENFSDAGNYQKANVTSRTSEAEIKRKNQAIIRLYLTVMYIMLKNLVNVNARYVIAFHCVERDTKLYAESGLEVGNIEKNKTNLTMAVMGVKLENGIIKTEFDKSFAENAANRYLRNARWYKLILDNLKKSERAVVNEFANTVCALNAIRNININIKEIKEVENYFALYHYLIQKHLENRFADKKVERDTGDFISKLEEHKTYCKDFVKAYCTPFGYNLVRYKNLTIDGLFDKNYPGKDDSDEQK

B1: target 1 insC 3' of 22,insU 3' of 14 (mixed)
RNA 1: CACCCGUGCAAAAAUGCAGGGGUCUAAAACUGAGCGGAUAACCUCUCUAUGG
RNA 2: GGGAAUGGAUCCACAUCUACGAAUUCGUACCCAUAGAGAUGGUUAUCCGCUCACCGAGAUCGGAAGAGCACACGU
B2: target 1 C7A,A16U (mixed)
RNA 1: CACCCGUGCAAAAAUGCAGGGGUCUAAAACUGAGCGGAUAACCUCUCUAUGG
RNA 2: GGGAAUGGAUCCACAUCUACGAAUUCGUACCAUAGUGAGGUUAUACGCUCACCGAGAUCGGAAGAGCACACGU
B3: target 1 G15U,C21U (mixed)
RNA 1: CACCCGUGCAAAAAUGCAGGGGUCUAAAACUGAGCGGAUAACCUCUCUAUGG
RNA 2: GGGAAUGGAUCCACAUCUACGAAUUCGUACUAUAGAUAGGUUAUCCGCUCACCGAGAUCGGAAGAGCACACGU
B4: target 1 del3,del5 (mixed)
RNA 1: CACCCGUGCAAAAAUGCAGGGGUCUAAAACUGAGCGGAUAACCUCUCUAUGG
RNA 2: GGGAAUGGAUCCACAUCUACGAAUUCGUACCAUAGAGAGGUUAUCCCCACCGAGAUCGGAAGAGCACACGU
B5: target 1 U10C,G12A (mixed)
RNA 1: CACCCGUGCAAAAAUGCAGGGGUCUAAAACUGAGCGGAUAACCUCUCUAUGG
RNA 2: GGGAAUGGAUCCACAUCUACGAAUUCGUACCAUAGAGAGAUCAUCCGCUCACCGAGAUCGGAAGAGCACACGU
B6: target 1 G17A,A18G (mixed)
RNA 1: CACCCGUGCAAAAAUGCAGGGGUCUAAAACUGAGCGGAUAACCUCUCUAUGG
RNA 2: GGGAAUGGAUCCACAUCUACGAAUUCGUACCAUGAAGAGGUUAUCCGCUCACCGAGAUCGGAAGAGCACACGU
B7: target 1 insA 3' of 3,insU 3' of 2 (mixed)
RNA 1: CACCCGUGCAAAAAUGCAGGGGUCUAAAACUGAGCGGAUAACCUCUCUAUGG
RNA 2: GGGAAUGGAUCCACAUCUACGAAUUCGUACCAUAGAGAGGUUAUCCGCUACUACCGAGAUCGGAAGAGCACACGU
B8: target 1 insU 3' of 14,insA 3' of 5 (mixed)
RNA 1: CACCCGUGCAAAAAUGCAGGGGUCUAAAACUGAGCGGAUAACCUCUCUAUGG
RNA 2: GGGAAUGGAUCCACAUCUACGAAUUCGUACCAUAGAGAUGGUUAUCCGACUCACCGAGAUCGGAAGAGCACACGU
B9: target 1 insU 3' of 21,insU 3' of 2 (mixed)
RNA 1: CACCCGUGCAAAAAUGCAGGGGUCUAAAACUGAGCGGAUAACCUCUCUAUGG
RNA 2: GGGAAUGGAUCCACAUCUACGAAUUCGUACCUAUAGAGAGGUUAUCCGCUCUACCGAGAUCGGAAGAGCACACGU
B10: target 1 G12C,A14G (mixed)
RNA 1: CACCCGUGCAAAAAUGCAGGGGUCUAAAACUGAGCGGAUAACCUCUCUAUGG
RNA 2: GGGAAUGGAUCCACAUCUACGAAUUCGUACCAUAGAGGGCUUAUCCGCUCACCGAGAUCGGAAGAGCACACGU
B11: target 1 G5A,C6G (mixed)
RNA 1: CACCCGUGCAAAAAUGCAGGGGUCUAAAACUGAGCGGAUAACCUCUCUAUGG
RNA 2: GGGAAUGGAUCCACAUCUACGAAUUCGUACCAUAGAGAGGUUAUCGACUCACCGAGAUCGGAAGAGCACACGU
B12: target 1 insA 3' of 7,insC 3' of 5 (mixed)
RNA 1: CACCCGUGCAAAAAUGCAGGGGUCUAAAACUGAGCGGAUAACCUCUCUAUGG
RNA 2: GGGAAUGGAUCCACAUCUACGAAUUCGUACCAUAGAGAGGUUAUCACGCCUCACCGAGAUCGGAAGAGCACACGU
B13: target 1 insU 3' of 20 (mixed)
RNA 1: CACCCGUGCAAAAAUGCAGGGGUCUAAAACUGAGCGGAUAACCUCUCUAUGG
RNA 2: GGGAAUGGAUCCACAUCUACGAAUUCGUACCAUUAGAGAGGUUAUCCGCUCACCGAGAUCGGAAGAGCACACGU
B14: target 1 G13U,A14C (mixed)
RNA 1: CACCCGUGCAAAAAUGCAGGGGUCUAAAACUGAGCGGAUAACCUCUCUAUGG
RNA 2: GGGAAUGGAUCCACAUCUACGAAUUCGUACCAUAGAGCUGUUAUCCGCUCACCGAGAUCGGAAGAGCACACGU
B15: target 1 insU 3' of 6,insU 3' of 1 (mixed)
RNA 1: CACCCGUGCAAAAAUGCAGGGGUCUAAAACUGAGCGGAUAACCUCUCUAUGG
RNA 2: GGGAAUGGAUCCACAUCUACGAAUUCGUACCAUAGAGAGGUUAUCCUGCUCAUCCGAGAUCGGAAGAGCACACGU
B16: target 1 A9G,U11C (mixed)
RNA 1: CACCCGUGCAAAAAUGCAGGGGUCUAAAACUGAGCGGAUAACCUCUCUAUGG
RNA 2: GGGAAUGGAUCCACAUCUACGAAUUCGUACCAUAGAGAGGCUGUCCGCUCACCGAGAUCGGAAGAGCACACGU
B17: target 1 C4A,G5C (mixed)
RNA 1: CACCCGUGCAAAAAUGCAGGGGUCUAAAACUGAGCGGAUAACCUCUCUAUGG
RNA 2: GGGAAUGGAUCCACAUCUACGAAUUCGUACCAUAGAGAGGUUAUCCCAUCACCGAGAUCGGAAGAGCACACGU
B18: target 1 insC 3' of 13,insC 3' of 9 (mixed)
RNA 1: CACCCGUGCAAAAAUGCAGGGGUCUAAAACUGAGCGGAUAACCUCUCUAUGG
RNA 2: GGGAAUGGAUCCACAUCUACGAAUUCGUACCAUAGAGAGCGUUACUCCGCUCACCGAGAUCGGAAGAGCACACGU
B19: target 1 C4A,A14C (mixed)
RNA 1: CACCCGUGCAAAAAUGCAGGGGUCUAAAACUGAGCGGAUAACCUCUCUAUGG
RNA 2: GGGAAUGGAUCCACAUCUACGAAUUCGUACCAUAGAGCGGUUAUCCGAUCACCGAGAUCGGAAGAGCACACGU
B20: target 1 complement block 3-13 (mixed)
RNA 1: CACCCGUGCAAAAAUGCAGGGGUCUAAAACUGAGCGGAUAACCUCUCUAUGG
RNA 2: GGGAAUGGAUCCACAUCUACGAAUUCGUACCAUAGAGACCAAUAGGCGACACCGAGAUCGGAAGAGCACACGU
B21: target 1 insA 3' of 17,insU 3' of 14 (mixed)
RNA 1: CACCCGUGCAAAAAUGCAGGGGUCUAAAACUGAGCGGAUAACCUCUCUAUGG
RNA 2: GGGAAUGGAUCCACAUCUACGAAUUCGUACCAUAGAAGAUGGUUAUCCGCUCACCGAGAUCGGAAGAGCACACGU
B22: target 1 A16G,G17A (mixed)
RNA 1: CACCCGUGCAAAAAUGCAGGGGUCUAAAACUGAGCGGAUAACCUCUCUAUGG
RNA 2: GGGAAUGGAUCCACAUCUACGAAUUCGUACCAUAAGGAGGUUAUCCGCUCACCGAGAUCGGAAGAGCACACGU
B23: target 1 insC 3' of 9,insG 3' of 7 (mixed)
RNA 1: CACCCGUGCAAAAAUGCAGGGGUCUAAAACUGAGCGGAUAACCUCUCUAUGG
RNA 2: GGGAAUGGAUCCACAUCUACGAAUUCGUACCAUAGAGAGGUUACUCGCGCUCACCGAGAUCGGAAGAGCACACGU

This data set addresses T1, EsCas13d, nuclease-dead. Briefly: crRNA (strand 1, pre-loaded); Mg2+; 40 mM Tris-HCl pH 7.5, 150 mM NaCl, 6 mM MgCl2, 1 mM DTT, 0.1% Tween-20, 0.2 mg/ml BSA; 25 C; 10 min per concentration, then washed. As to conditions: tags: His6-TwinStrep-SUMO cleaved; N-terminal SNAP kept (SNAP-Surface 488); label: 3' end held by stalled T7 RNA polymerase.
B1 gave a dissociation constant (Kd) of 40 ± 10 nM.

Regarding B2, the Kd was determined as 42.2 ± 2.5 nM.

Turning to B3, binding was put at a Kd of 6.4 ± 0.5 nM. Molecule B4 showed a Kd of 15.8 ± 0.9 nM. Take B5: the Kd worked out at 13.8 ± 0.6 nM. B6 returned a dissociation constant Kd of 81 ± 22 nM. The result for B7 reads 9 ± 0.6 nM.

Take B8: the Kd was 28.7 ± 3 nM. The molecule B9 gave a Kd of 38 ± 4 nM. B10 came in with a Kd of 27.5 ± 3.1 nM.

Turning to B11, binding was characterised by a dissociation constant (Kd) of 8 ± 0.4 nM. For the molecule B12, the Kd amounted to 11.1 ± 0.5 nM. B13 registered an equilibrium dissociation constant (Kd) of 10.6 ± 0.6 nM. Turning to B14, the Kd is 10.8 ± 0.7 nM.

Take B15: the Kd is 14.1 ± 1.4 nM. As to B16, the Kd was 12.1 ± 0.5 nM.

B17 registered a Kd of 20.9 ± 1.7 nM.

Turning to B18, binding was characterised by a dissociation constant (Kd) of 17.9 ± 1.1 nM.

Molecule B19 registered a Kd of 11.9 ± 1.3 nM. The result for B20 reads 62 ± 7 nM; that for B21, 62 ± 11 nM. In the case of B22, binding was characterised by a dissociation constant (Kd) of 84 ± 30 nM. With B23, the Kd was determined as 11.4 ± 0.7 nM.
